Results on five substances are retold here after article PMC8094900.

For assay [1], the target named is Myrf-F387S N-terminal fragment. In words: cold western blot (cold SDS-PAGE, Flag immunoblot). The note with it: Flag-tagged constructs expressed in Oli-neu cells; SDS-PAGE in a cold condition; parent: est. 0.27; read off a plot. (In general: Immunoblotting shows a protein as a band on a membrane.)
The target in assay [2] is Myrf N-terminal fragment (wild-type mouse Myrf) (mouse). Put plainly: cold western blot (SDS-PAGE in a cold chamber); N-terminally Flag-tagged Myrf constructs expressed in Oli-neu cells; SDS-PAGE in a cold condition, membrane probed with Flag antibodies; ratio of trimeric to monomeric N-terminal fragment.
For assay [3], the target named is Myrf-L479V N-terminal fragment. In words: cold western blot (cold SDS-PAGE, Flag immunoblot). The note with it: Flag-tagged constructs expressed in Oli-neu cells; SDS-PAGE in a cold condition; parent: est. 0.27; read off a plot.
Assay [4] concerns the target Myrf-G435R N-terminal fragment. In words: cold western blot (cold SDS-PAGE, Flag immunoblot). The note with it: Flag-tagged constructs expressed in Oli-neu cells; SDS-PAGE in a cold condition; parent: est. 0.27; read off a plot.
Assay [5] concerns the target Myrf-Q403H N-terminal fragment. In words: cold western blot (cold SDS-PAGE, Flag immunoblot). The note with it: Flag-tagged constructs expressed in Oli-neu cells; SDS-PAGE in a cold condition; parent: est. 0.27; read off a plot.

Sequence of Myrf N-terminal fragment (wild-type mouse Myrf) (Q3UR85 whole entry, the tested form may be a part): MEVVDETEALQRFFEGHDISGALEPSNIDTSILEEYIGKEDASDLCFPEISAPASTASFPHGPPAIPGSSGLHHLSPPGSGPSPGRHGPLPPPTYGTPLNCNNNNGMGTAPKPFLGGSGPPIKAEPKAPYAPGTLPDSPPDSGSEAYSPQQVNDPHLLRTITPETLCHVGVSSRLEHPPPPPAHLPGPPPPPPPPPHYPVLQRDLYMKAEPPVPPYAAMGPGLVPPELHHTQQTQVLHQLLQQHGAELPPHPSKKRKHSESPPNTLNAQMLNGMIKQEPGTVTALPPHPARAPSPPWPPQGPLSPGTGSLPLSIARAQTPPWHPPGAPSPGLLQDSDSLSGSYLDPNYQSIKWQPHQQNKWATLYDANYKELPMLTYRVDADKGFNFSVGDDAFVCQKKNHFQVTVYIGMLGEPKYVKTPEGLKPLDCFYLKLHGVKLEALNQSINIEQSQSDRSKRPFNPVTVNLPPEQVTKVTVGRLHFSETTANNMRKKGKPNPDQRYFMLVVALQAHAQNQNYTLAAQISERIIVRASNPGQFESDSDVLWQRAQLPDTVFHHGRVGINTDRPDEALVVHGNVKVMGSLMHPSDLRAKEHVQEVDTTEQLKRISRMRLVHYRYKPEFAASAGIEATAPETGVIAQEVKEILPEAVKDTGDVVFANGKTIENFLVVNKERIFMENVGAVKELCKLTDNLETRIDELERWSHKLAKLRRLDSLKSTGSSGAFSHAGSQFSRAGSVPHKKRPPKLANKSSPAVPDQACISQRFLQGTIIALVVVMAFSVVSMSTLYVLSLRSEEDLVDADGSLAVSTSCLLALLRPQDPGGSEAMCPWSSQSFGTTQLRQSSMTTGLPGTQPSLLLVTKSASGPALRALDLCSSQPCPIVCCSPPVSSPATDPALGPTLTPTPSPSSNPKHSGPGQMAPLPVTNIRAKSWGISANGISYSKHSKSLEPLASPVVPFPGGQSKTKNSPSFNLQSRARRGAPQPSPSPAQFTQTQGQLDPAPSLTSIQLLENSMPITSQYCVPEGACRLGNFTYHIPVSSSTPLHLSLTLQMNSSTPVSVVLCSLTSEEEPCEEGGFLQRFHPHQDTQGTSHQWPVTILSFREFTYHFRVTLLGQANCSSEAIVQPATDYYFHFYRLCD

Take “Myrf N-terminal fragment (wild-type mouse Myrf) F387S”: the other: Trimer/(Trimer+Monomer) in assay [1] amounted to 0.045. As to “Myrf N-terminal fragment (wild-type mouse Myrf) (domain or fragment)”, the stoichiometry N (commonly the number of molecules, sites or subunits per partner or assembly) in assay [2] came out at 3. As to “Myrf N-terminal fragment (wild-type mouse Myrf) L479V”, in assay [3], the other: Trimer/(Trimer+Monomer) worked out at 0.01. With “Myrf N-terminal fragment (wild-type mouse Myrf) G435R”, the other: Trimer/(Trimer+Monomer) in assay [4] is 0.02. Consider “Myrf N-terminal fragment (wild-type mouse Myrf) Q403H”, for which, in assay [5], the other: Trimer/(Trimer+Monomer) was determined as 0.08.
